{
  "source": "patent US20210369842A1",
  "about": "(Genmab, published 2021)",
  "binders": {"B1": {"name": "CD137-009 (chimeric rabbit/human CD137 antibody) (antibody, V domains shown)", "VH": "QSLEESGGRLVTPGTPLTLTCTVSGFSLNDYWMSWVRQAPGKGLEWIGYIDVGGSLYYASWAKGRFTISRTSTTVDLKMTSLTTEDTATYFCARGGLTYGFDLWGPGTLVTVSS", "VL": "DIVMTQTPASVSEPVGGTVTINCQASEDISSYLAWYQQKPGQRPKRLIYGASDLASGVPSRFSASGSGTEYALTISDLESADAATYYCHYYATISGLGVAFGGGTEVVVK", "notes": "also called antibody CD137-009; rabbit anti-CD137-009"}},
  "key": {"[1]": {"biological_target": "T1, African elephant (Loxodonta africana) CD137 (African elephant (Loxodonta africana))", "T1 construct": "Expressed on transfected HEK293T-17 cells; Amino acids 1-23 are stated as the predicted signal peptide; also called elephant CD137", "T1 chain": "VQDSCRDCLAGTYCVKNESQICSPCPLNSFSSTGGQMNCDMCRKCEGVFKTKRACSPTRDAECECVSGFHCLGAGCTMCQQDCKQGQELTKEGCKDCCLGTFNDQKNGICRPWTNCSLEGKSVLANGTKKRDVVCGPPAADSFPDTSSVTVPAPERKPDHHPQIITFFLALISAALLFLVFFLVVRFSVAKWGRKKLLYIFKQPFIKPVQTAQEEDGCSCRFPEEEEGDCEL", "test": "flow cytometry on transfected HEK293T-17 cells", "description": "(§1) 3×10⁶ HEK293T-17 cells were seeded in T75 culture flasks (Greiner Bio-One, cat. no. 658175) in 20 mL RPMI 1640 GlutaMAX medium containing 10% FCS (Biochrom, cat. no. S 0115). After O/N incubation, cells were transiently […] with expression vectors encoding the shuffle constructs or the wild boar, African elephant or human CD137 downstream of a constitutively active human elongation factor-1 alpha (EF-1 alpha) promotor using TransIT®-LT1 Transfection Reagent, Mirus Bio (VWR International, cat. no. 731-0029), according to the manufacturer's instructions. The next day, cells were harvested using 1.5 mL Accutase (Sigma Aldrich, cat. no. A6964) (incubation at 37° C. for 5 min.) and flow cytometry was performed, essentially as described supra, to measure surface expression of the shuffle constructs and the human, African elephant and wild boar CD137 and to measure binding of the antibody clones to the different shuffle constructs. […] Binding of the different CD137 antibody clones to cells expressing the shuffle constructs was measured by incubation of the transduced cells with 1 μg/mL of the antibody clones, followed by APC-labeled AffiniPure F(ab′)2 Fragment (1:50 final dilution; Jackson, cat. no. 109-136-127)."}, "[2]": {"biological_target": "T2, Human CD137 shuffle 5 (amino acids 48-88 of African elephant CD137) (human CD137 with an African elephant …, UniProt Q07011 24-255)", "T2 construct": "also called shuffle construct 5", "T2 chain": "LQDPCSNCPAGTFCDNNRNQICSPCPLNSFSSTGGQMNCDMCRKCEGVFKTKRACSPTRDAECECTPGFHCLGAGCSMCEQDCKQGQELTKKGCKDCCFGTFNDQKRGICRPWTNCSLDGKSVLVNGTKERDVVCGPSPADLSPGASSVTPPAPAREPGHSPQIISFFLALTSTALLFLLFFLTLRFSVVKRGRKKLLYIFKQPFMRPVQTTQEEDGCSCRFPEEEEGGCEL", "test": "flow cytometry on transfected HEK293T-17 cells", "description": "as §1"}, "[3]": {"biological_target": "T3, Wild boar (Sus scrofa) CD137 (wild boar (Sus scrofa))", "T3 construct": "Expressed on transfected HEK293T-17 cells; Amino acids 1-23 are stated as the predicted signal peptide; also called wild boar CD137", "T3 chain": "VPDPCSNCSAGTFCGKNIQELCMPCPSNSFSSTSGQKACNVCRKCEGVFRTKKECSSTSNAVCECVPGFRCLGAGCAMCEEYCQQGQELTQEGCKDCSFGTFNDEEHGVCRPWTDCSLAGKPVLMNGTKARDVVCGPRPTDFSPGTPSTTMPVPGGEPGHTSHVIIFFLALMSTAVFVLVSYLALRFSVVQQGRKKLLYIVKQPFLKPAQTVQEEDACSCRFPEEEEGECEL", "test": "flow cytometry on transfected HEK293T-17 cells", "description": "as §1"}, "Shuffle 1": {"biological_target": "T4, Shuffle 1", "T4 construct": "Expressed on transiently transfected HEK293-T17 cells; also called Human CD137 shuffle 1 (amino acids 162-186 of wild boar CD137); shuffle construct 1", "T4 receptor chain": "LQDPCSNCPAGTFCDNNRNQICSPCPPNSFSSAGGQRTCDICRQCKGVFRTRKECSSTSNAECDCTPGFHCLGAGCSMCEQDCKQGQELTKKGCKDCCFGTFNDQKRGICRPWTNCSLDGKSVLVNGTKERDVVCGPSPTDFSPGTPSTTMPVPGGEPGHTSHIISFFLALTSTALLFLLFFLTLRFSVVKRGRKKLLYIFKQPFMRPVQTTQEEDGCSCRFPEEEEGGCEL", "test": "flow cytometry on transfected HEK293-T17 cells, 1 µg/mL antibody, APC-labeled AffiniPure F(ab')2 fragment as secondary", "description": "as §1"}, "Shuffle 2": {"biological_target": "T5, Shuffle 2", "T5 construct": "Expressed on transiently transfected HEK293-T17 cells; also called Human CD137 shuffle 2 (amino acids 139-161 of wild boar CD137); shuffle construct 2", "T5 receptor chain": "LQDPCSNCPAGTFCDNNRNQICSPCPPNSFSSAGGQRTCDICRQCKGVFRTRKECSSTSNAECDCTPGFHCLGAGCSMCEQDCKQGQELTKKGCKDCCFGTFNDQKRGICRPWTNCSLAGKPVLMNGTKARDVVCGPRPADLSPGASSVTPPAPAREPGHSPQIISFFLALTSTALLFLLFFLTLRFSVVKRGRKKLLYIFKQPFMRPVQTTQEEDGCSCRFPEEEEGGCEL", "test": "flow cytometry on transfected HEK293-T17 cells, 1 µg/mL antibody, APC-labeled AffiniPure F(ab')2 fragment as secondary", "description": "as §1"}, "Shuffle 4": {"biological_target": "T6, Shuffle 4", "T6 construct": "Expressed on transiently transfected HEK293-T17 cells; also called Human CD137 shuffle 4 (amino acids 89-114 of wild boar CD137); shuffle construct 4", "T6 receptor chain": "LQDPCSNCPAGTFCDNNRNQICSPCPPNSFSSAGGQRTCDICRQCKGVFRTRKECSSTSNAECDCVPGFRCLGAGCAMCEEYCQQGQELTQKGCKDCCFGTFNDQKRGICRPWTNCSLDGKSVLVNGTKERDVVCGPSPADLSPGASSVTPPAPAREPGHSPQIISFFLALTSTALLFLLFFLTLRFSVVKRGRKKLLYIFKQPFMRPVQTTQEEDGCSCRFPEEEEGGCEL", "test": "flow cytometry on transfected HEK293-T17 cells, 1 µg/mL antibody, APC-labeled AffiniPure F(ab')2 fragment as secondary", "description": "as §1"}, "Shuffle 3": {"biological_target": "T7, Shuffle 3", "T7 construct": "Expressed on transiently transfected HEK293-T17 cells; also called Human CD137 shuffle 3 (amino acids 115-138 of wild boar CD137); shuffle construct 3", "T7 receptor chain": "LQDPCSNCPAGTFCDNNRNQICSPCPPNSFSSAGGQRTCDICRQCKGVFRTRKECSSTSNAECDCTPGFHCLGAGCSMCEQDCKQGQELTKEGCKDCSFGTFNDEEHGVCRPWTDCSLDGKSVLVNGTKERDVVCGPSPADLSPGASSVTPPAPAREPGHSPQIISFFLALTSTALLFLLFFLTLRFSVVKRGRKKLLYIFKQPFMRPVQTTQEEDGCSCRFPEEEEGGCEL", "test": "flow cytometry on transfected HEK293-T17 cells, 1 µg/mL antibody, APC-labeled AffiniPure F(ab')2 fragment as secondary", "description": "as §1"}, "Human CD137": {"biological_target": "T8, Human CD137 (human, UniProt Q07011 24-255)", "T8 construct": "Amino acids 1-23 are stated as the predicted signal peptide; also called hCD137 wt; 4-1BB", "test": "flow cytometry on HEK293T-17 cells transfected with human CD137, 1 µg/mL antibody", "description": "as §1"}},
  "data": [
    {"binder": "B1", "values": [
      {"measurement": "binding result", "setting": "[1]", "value": "no binding (tested: 1 µg/mL)"},
      {"measurement": "binding result", "setting": "[2]", "value": "no binding (tested: 1 µg/mL)"},
      {"measurement": "binding result", "setting": "[3]", "value": "no binding (tested: 1 µg/mL)"},
      {"measurement": "binding result", "setting": "Shuffle 1", "value": "binds"},
      {"measurement": "binding result", "setting": "Shuffle 2", "value": "binds"},
      {"measurement": "binding result", "setting": "Shuffle 4", "value": "binds"},
      {"measurement": "binding result", "setting": "Shuffle 3", "value": "binds"},
      {"measurement": "binding result", "setting": "Human CD137", "value": "binds"}
    ]}
  ]
}
